Results: the RNAGym collection of RNA variant scans (doi:10.7554/elife.80360)

B1: Hairpin Ribozyme (parent)
chain: GUCCUCUUUCACGUGCGCGUGAAAGAGAGAAGUGAACCAGAGAAACACACGUUGUGGUAUAUUACCUGGUA

Variants of: B1
Assay: self-cleavage, relative activity (ratio to wild type); higher = more cleavage; co-transcriptional

Variant	self-cleavage
U33A U62G	0.174
U33A U67G	0.169
U33C A39C	0.171
U33C A41C	0.114
U33C A47U	0.0811
U33C A49C	0.148
U33C A49U	0.127
U33C A59C	0.198
U33C A59G	0.083
U33C A59U	0.128
U33C A64U	0.154
U33C A71U	0.144
U33C C37G	0.0717
U33C C38G	0.123
U33C C46G	0.187
U33C C46U	0.0782
U33C C50G	0.0836
U33C C50U	0.0772
U33C C66G	0.112
U33C G34U	0.348
U33C G40C	0.0896

Variant	self-cleavage
U33C G42C	0.0894
U33C G42U	0.115
U33C G54A	0.0427
U33C G54C	0.163
U33C G54U	0.141
U33C G57C	0.0819
U33C U52C	0.177
U33C U53G	0.299
U33C U55C	0.173
U33C U58A	0.0907
U33C U58G	0.0694
U33C U60C	0.128
U33C U62A	0.278
U33C U62C	0.0427
U33C U62G	0.0931
U33C U63G	0.0654
U33C U70A	0.0822
U33G A35C	0.333
U33G A35U	0.16
U33G A36C	0.0918
U33G A41C	0.156

Variant	self-cleavage
U33G A41U	0.251
U33G A44C	0.0874
U33G A44G	0.0996
U33G A44U	0.23
U33G A45U	0.0465
U33G A47G	0.0744
U33G A47U	0.105
U33G A49U	0.218
U33G A59G	0.204
U33G A59U	0
U33G A64C	0.0723
U33G C38A	0.139
U33G C38G	0.128
U33G C38U	0.204
U33G C48A	0.158
U33G C65A	0.189
U33G C65U	0.0212
U33G C66A	0.0596
U33G C66G	0.0993
U33G G34A	0.317
U33G G42A	0.0778

Variant	self-cleavage
U33G G56C	0.0919
U33G G56U	0.244
U33G G68C	0.0688
U33G G69C	0.038
U33G U52G	0.0362
U33G U58A	0.0636
U33G U60C	0.195
U33G U62C	0.0629
U33G U63A	0.126
U33G U63C	0.217
U33G U70A	0.121
G34A	1.21
G34A A36C	0.956
G34A A41G	1.3
G34A A43C	0.229
G34A A44C	0.223
G34A A44G	0.259
G34A A45G	0.435
G34A A45U	0.0941
G34A A49U	0.174
G34A A59C	0.148
